Experimental findings from US20230235334A1 are described below.

For the experiment, the target named is OmpR fused to the VP64 activation domain (E. coli). Nature of the experiment: cell-based or functional assay.

Substance “EnvZm2 (T247A) (from UniProt A0A4P7TSF2 1-450) (enzyme)” gave a fold-change of OmpR-driven mKate2 median fluorescence output (6xmCMV37 promoter, HEK-293FT cells), EnvZm2 (kinase) against EnvZm1 (D244A phosphatase, SEQ ID NO: 2), at the highest levels of OmpR of 40 fold; a fold-change of mKate2 median fluorescence output from the strongest OmpR promoter when the kinase (EnvZm2) or the phosphatase (EnvZm1) was present, HEK-293FT cells of 500 fold; a relative kinase strength against EnvZm1 phosphatase, from OmpR-driven mKate2 output in kinase titrations (Open-loop against Const. P), HEK-293FT cells below 3 fold.
